Test results published in article PMC6994465, “Structural basis of proton-coupled potassium transport in the KUP family” (Nature Communications, 2020).

Molecular target: the molecule itself
Experiment: cryo-EM structure; KimA in SMA lipid particles (SMALPs) at 1.1 mg/mL, 50 mM Tris pH 8, 100 mM KCl, with 50 uM cyclic di-AMP; C2 symmetry; 3.7 A

B1: KimA from Bacillus subtilis (natural protein)
chain: MYHSIKRFLIGKPLKSQAAGEQKLTKLKALAMLSSDALSSVAYGTEQILIILATISAAAFWYSIPIAVGVLILLLALILSYRQIIYAYPQGGGAYIVSKENLGEKPGLIAGGSLLVDYILTVAVSISAGTDAITSAFPALHDYHVPIAIFLVLVIMILNLRGLSESASILAYPVYLFVVALLVLIAVGLFKLMTGQIDQPAHHTSLGTPVAGITLFLLLKAFSSGCSALTGVEAISNAIPAFKNPPARNAARTLAMMGILLAILFSGITVLAYGYGTAPKPDETVVSQIASETFGRNVFYYVIQGVTSLILVLAANTGFSAFPQLAFNLARDQYMPRMFTVRGDRLGFSNGIIFLGFASIVLIILFGGQTEHLIPLYAVGVFIPFTLSQTGMCMKWIKQKPKGWIGKMLINSCGALISFMVLSILFVTKFNVVWPVLIFMPIVVLLFFAIKNHYTAVGEQLRIVDKEPEEIKGTVVIVPVAGVTTVVQKSIHYAKSLSDQVIAVHVSFDREQEKKFEKRWEELNNGVRLVTLHSSYRSLVHPFDKFLETVEAKAKKEQFSVMVLFPQFITKKRWHTILHNQSAFLLRVRLFWKKDIMVATLPYHFKK
notes: KimA, potassium importer of the KUP family, Bacillus subtilis; gene amplified from genomic DNA; Homodimer in the cryo-EM structure; The model holds 572 of 607 residues (it lacks the first 26 residues and residues 480-481, 534-538 and 607); Primers are in the Supplementary Methods; also called wild-type KimA; potassium importer KimA; source: E. coli LB2003, purified (membranes solubilised with SMA …)
How did the “stoichiometry N” value turn out when B1 was run?
The value was 2.
